Experimental data: patent US20150322128A1 (Sanofi, published 2015)
Positions count from the first letter of the chain named. Numbered stars: 1 amine (or outer) side, 2 acyl side, 3 side chain; on linkers, the order of the positions; unused ones are H or OH. Square brackets hold non-standard residues; d marks the D form. Side chains are listed from the residue outwards. Ends that are not written are not given here. * marks the point of attachment. γGlu = O=C(O)[C@H](CCC(=O)[*:2])N[*:1]; Palmitoyl = CCCCCCCCCCCCCCCC(=O)*; Aib = CC(C)(N)C(=O)O

T1: human GIP receptor (human, UniProt P48546 22-466)
T1 sequence (looked up): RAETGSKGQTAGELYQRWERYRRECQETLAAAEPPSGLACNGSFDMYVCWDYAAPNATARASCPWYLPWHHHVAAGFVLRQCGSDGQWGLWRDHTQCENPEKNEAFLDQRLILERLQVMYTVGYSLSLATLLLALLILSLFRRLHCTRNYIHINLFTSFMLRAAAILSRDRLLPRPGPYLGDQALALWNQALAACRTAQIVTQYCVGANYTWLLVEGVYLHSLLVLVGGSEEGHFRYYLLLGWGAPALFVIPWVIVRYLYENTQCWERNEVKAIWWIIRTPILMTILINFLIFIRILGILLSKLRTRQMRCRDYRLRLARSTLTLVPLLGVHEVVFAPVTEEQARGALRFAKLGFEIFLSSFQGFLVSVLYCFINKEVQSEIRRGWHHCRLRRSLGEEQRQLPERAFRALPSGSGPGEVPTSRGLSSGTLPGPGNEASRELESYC

B1: SEQ ID NO: 32 (peptide)
peptide: HXQGTFTSDLSKQKDEEAARLFIEWLKAGGPSSGAPPPS
modifications: D-Ser at 2; Lys 14 side chain K(γE-γE-x53) = (S)-4-Carboxy-4-((S)-4-carboxy-4-hexadecanoylamino-butyrylamino)-butyryl-; C-terminal amide
B2: SEQ ID NO: 9 (peptide)
peptide: B1 peptide with K27X
modifications: D-Ser at 2; Lys 14 side chain K(γE-γE-x53) = (S)-4-Carboxy-4-((S)-4-carboxy-4-hexadecanoylamino-butyrylamino)-butyryl-; Aib at 27; C-terminal amide
B3: SEQ ID NO: 11 (peptide)
peptide: HSQGTFTSDLSKQK([γGlu-γGlu-Palmitoyl])DEEAARLFIEWL[Aib]AGGPSSGAPPPS-NH2
modifications: N-terminus assumed
SMILES: CCCCCCCCCCCCCCCC(=O)N[C@@H](CCC(=O)N[C@@H](CCC(=O)NCCCC[C@H](NC(=O)[C@H](CCC(N)=O)NC(=O)[C@H](CCCCN)NC(=O)[C@H](CO)NC(=O)[C@H](CC(C)C)NC(=O)[C@H](CC(=O)O)NC(=O)[C@H](CO)NC(=O)[C@@H](NC(=O)[C@H](Cc1ccccc1)NC(=O)[C@@H](NC(=O)CNC(=O)[C@H](CCC(N)=O)NC(=O)[C@H](CO)NC(=O)[C@@H](N)Cc1c[nH]cn1)[C@@H](C)O)[C@@H](C)O)C(=O)N[C@@H](CC(=O)O)C(=O)N[C@@H](CCC(=O)O)C(=O)N[C@@H](CCC(=O)O)C(=O)N[C@@H](C)C(=O)N[C@@H](C)C(=O)N[C@@H](CCCNC(=N)N)C(=O)N[C@@H](CC(C)C)C(=O)N[C@@H](Cc1ccccc1)C(=O)N[C@H](C(=O)N[C@@H](CCC(=O)O)C(=O)N[C@@H](Cc1c[nH]c2ccccc12)C(=O)N[C@@H](CC(C)C)C(=O)NC(C)(C)C(=O)N[C@@H](C)C(=O)NCC(=O)NCC(=O)N1CCC[C@H]1C(=O)N[C@@H](CO)C(=O)N[C@@H](CO)C(=O)NCC(=O)N[C@@H](C)C(=O)N1CCC[C@H]1C(=O)N1CCC[C@H]1C(=O)N1CCC[C@H]1C(=O)N[C@@H](CO)C(N)=O)[C@@H](C)CC)C(=O)O)C(=O)O
B4: SEQ ID NO: 6 (peptide)
peptide: H[dS]HGTFTSDLSKQK([γGlu-γGlu-Palmitoyl])EEEAARLFIEWL[Aib]AGGPSSGAPPPS-NH2
modifications: N-terminus assumed
SMILES: CCCCCCCCCCCCCCCC(=O)N[C@@H](CCC(=O)N[C@@H](CCC(=O)NCCCC[C@H](NC(=O)[C@H](CCC(N)=O)NC(=O)[C@H](CCCCN)NC(=O)[C@H](CO)NC(=O)[C@H](CC(C)C)NC(=O)[C@H](CC(=O)O)NC(=O)[C@H](CO)NC(=O)[C@@H](NC(=O)[C@H](Cc1ccccc1)NC(=O)[C@@H](NC(=O)CNC(=O)[C@H](Cc1c[nH]cn1)NC(=O)[C@@H](CO)NC(=O)[C@@H](N)Cc1c[nH]cn1)[C@@H](C)O)[C@@H](C)O)C(=O)N[C@@H](CCC(=O)O)C(=O)N[C@@H](CCC(=O)O)C(=O)N[C@@H](CCC(=O)O)C(=O)N[C@@H](C)C(=O)N[C@@H](C)C(=O)N[C@@H](CCCNC(=N)N)C(=O)N[C@@H](CC(C)C)C(=O)N[C@@H](Cc1ccccc1)C(=O)N[C@H](C(=O)N[C@@H](CCC(=O)O)C(=O)N[C@@H](Cc1c[nH]c2ccccc12)C(=O)N[C@@H](CC(C)C)C(=O)NC(C)(C)C(=O)N[C@@H](C)C(=O)NCC(=O)NCC(=O)N1CCC[C@H]1C(=O)N[C@@H](CO)C(=O)N[C@@H](CO)C(=O)NCC(=O)N[C@@H](C)C(=O)N1CCC[C@H]1C(=O)N1CCC[C@H]1C(=O)N1CCC[C@H]1C(=O)N[C@@H](CO)C(N)=O)[C@@H](C)CC)C(=O)O)C(=O)O
B5: SEQ ID NO: 13 (peptide)
peptide: B1 peptide with K27X
modifications: D-Ser at 2; Lys 14 side chain K(γE-x70) = (S)-4-Carboxy-4-octadecanoylamino-butyryl-; Aib at 27; C-terminal amide
B6: SEQ ID NO: 14 (peptide)
peptide: B1 peptide with K27X
modifications: D-Ser at 2; Lys 14 side chain K(γE-x53) = (S)-4-Carboxy-4-hexadecanoylamino-butyryl-; Aib at 27; C-terminal amide
B7: SEQ ID NO: 28 (peptide)
peptide: H[dS]QGTFTSDLSKQLDEEAARLFIEWL[Aib]AGGPSSGAPPPS-NH2
modifications: N-terminus assumed
SMILES: CC[C@H](C)[C@H](NC(=O)[C@H](Cc1ccccc1)NC(=O)[C@H](CC(C)C)NC(=O)[C@H](CCCNC(=N)N)NC(=O)[C@H](C)NC(=O)[C@H](C)NC(=O)[C@H](CCC(=O)O)NC(=O)[C@H](CCC(=O)O)NC(=O)[C@H](CC(=O)O)NC(=O)[C@H](CC(C)C)NC(=O)[C@H](CCC(N)=O)NC(=O)[C@H](CCCCN)NC(=O)[C@H](CO)NC(=O)[C@H](CC(C)C)NC(=O)[C@H](CC(=O)O)NC(=O)[C@H](CO)NC(=O)[C@@H](NC(=O)[C@H](Cc1ccccc1)NC(=O)[C@@H](NC(=O)CNC(=O)[C@H](CCC(N)=O)NC(=O)[C@@H](CO)NC(=O)[C@@H](N)Cc1c[nH]cn1)[C@@H](C)O)[C@@H](C)O)C(=O)N[C@@H](CCC(=O)O)C(=O)N[C@@H](Cc1c[nH]c2ccccc12)C(=O)N[C@@H](CC(C)C)C(=O)NC(C)(C)C(=O)N[C@@H](C)C(=O)NCC(=O)NCC(=O)N1CCC[C@H]1C(=O)N[C@@H](CO)C(=O)N[C@@H](CO)C(=O)NCC(=O)N[C@@H](C)C(=O)N1CCC[C@H]1C(=O)N1CCC[C@H]1C(=O)N1CCC[C@H]1C(=O)N[C@@H](CO)C(N)=O

Molecular target: T2, human glucagon receptor (human, UniProt P47871 26-477)
T2 sequence (P47871 26-477): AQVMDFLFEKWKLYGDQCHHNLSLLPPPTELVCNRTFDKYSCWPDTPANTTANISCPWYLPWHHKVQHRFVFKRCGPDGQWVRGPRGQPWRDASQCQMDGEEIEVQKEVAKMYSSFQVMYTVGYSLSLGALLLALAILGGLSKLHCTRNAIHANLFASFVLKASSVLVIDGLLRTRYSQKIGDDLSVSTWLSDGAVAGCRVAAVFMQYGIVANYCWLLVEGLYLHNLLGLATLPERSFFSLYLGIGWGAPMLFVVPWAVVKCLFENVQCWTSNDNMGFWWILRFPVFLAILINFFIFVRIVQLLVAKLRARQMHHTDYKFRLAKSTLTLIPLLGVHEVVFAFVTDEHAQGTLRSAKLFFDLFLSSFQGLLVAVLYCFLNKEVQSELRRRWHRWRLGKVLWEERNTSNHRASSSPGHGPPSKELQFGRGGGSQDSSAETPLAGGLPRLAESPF
Assay: cell-based or functional assay

Binder | EC50 hGlucagon-R [nM]
B1 | 0.0055
B2 | 0.0118
H[dS]HGTFTSDLSKQK([γGlu-γGlu-Palmitoyl])DEEAARLFIEWL[Aib]AGGPSSGAPPPS-NH2 [SEQ ID NO: 7] | 0.009
B3 | 0.0051
B4 | 0.0177

Molecular target: T1, human GIP receptor
Assay: cell-based or functional assay

Binder | EC50 hGIP-1 [nM]
B1 | 0.565
B2 | 3.6
H[dS]HGTFTSDLSKQK([γGlu-γGlu-Palmitoyl])DEEAARLFIEWL[Aib]AGGPSSGAPPPS-NH2 [SEQ ID NO: 7] | 0.908
B3 | 0.56
B4 | 1.54

Molecular target: T3, human GLP-1 receptor (human, UniProt P43220 24-463)
Assay: cell-based or functional assay

Binder | EC50 hGLP-1R [nM]
B1 | 0.0019
B2 | 0.0018
H[dS]HGTFTSDLSKQK([γGlu-γGlu-Palmitoyl])DEEAARLFIEWL[Aib]AGGPSSGAPPPS-NH2 [SEQ ID NO: 7] | 0.0015
B3 | 0.0012
B4 | 0.0026

Molecular target: T2, human glucagon receptor
Assay: cell-based or functional assay
Remark: another data set of the same source

Binder | EC50 hGlucagon-R [nM]
B5 | 0.0068
B6 | 0.0247
B2 | 0.0118
H[dS]HGTFTSDLSKQK([γGlu-γGlu-Palmitoyl])DEEAARLFIEWL[Aib]AGGPSSGAPPPS-NH2 [SEQ ID NO: 7] | 0.009
B3 | 0.0051
B4 | 0.0177

Molecular target: T1, human GIP receptor
Assay: cell-based or functional assay
Remark: another data set of the same source

Binder | EC50 hGIP-R [nM]
B5 | 2.54
B6 | 5.36
B2 | 3.6
H[dS]HGTFTSDLSKQK([γGlu-γGlu-Palmitoyl])DEEAARLFIEWL[Aib]AGGPSSGAPPPS-NH2 [SEQ ID NO: 7] | 0.908
B3 | 0.56
B4 | 1.54

Molecular target: T3, human GLP-1 receptor
Assay: cell-based or functional assay
Remark: another data set of the same source

Binder | EC50 hGLP-1R [nM]
B5 | 0.0027
B6 | 0.0021
B2 | 0.0018
H[dS]HGTFTSDLSKQK([γGlu-γGlu-Palmitoyl])DEEAARLFIEWL[Aib]AGGPSSGAPPPS-NH2 [SEQ ID NO: 7] | 0.0015
B3 | 0.0012
B4 | 0.0026

Molecular target: T2, human glucagon receptor
Assay: cell-based or functional assay
Remark: another data set of the same source

Binder | EC50 hGlucagon-R [nM]
B1 | 0.0055
B5 | 0.0068
B6 | 0.0247
B2 | 0.0118
B7 | 1.04
H[dS]QGTFTSDLSKQLDEEAARLFIEWLKAGGPSSGAPPPS-NH2 [SEQ ID NO: 34] | 0.338

Molecular target: T1, human GIP receptor
Assay: cell-based or functional assay
Remark: another data set of the same source

Binder | EC50 hGIP-1 [nM]
B1 | 0.565
B5 | 2.54
B6 | 5.36
B2 | 3.6
B7 | 343
H[dS]QGTFTSDLSKQLDEEAARLFIEWLKAGGPSSGAPPPS-NH2 [SEQ ID NO: 34] | 26

Molecular target: T3, human GLP-1 receptor
Assay: cell-based or functional assay
Remark: another data set of the same source

Binder | EC50 hGLP-1R [nM]
B1 | 0.0019
B5 | 0.0027
B6 | 0.0021
B2 | 0.0018
B7 | 0.0038
H[dS]QGTFTSDLSKQLDEEAARLFIEWLKAGGPSSGAPPPS-NH2 [SEQ ID NO: 34] | 0.0008
